Measurements: the Immune Epitope Database (IEDB)
pIC50: −log10 of the molar value.

Experiments:
Assay in all cases: IEDB peptide-MHC binding, purified MHC/competitive/radioactivity; ≥ and ≤ were set here for values at or beyond the usual limits of such assays
Settings in all cases: source organism: Bordetella pertussis
HLA-B*44:03 = target: HLA-B*44:03
HLA-B*53:01 = target: HLA-B*53:01
HLA-B*57:01 = target: HLA-B*57:01
HLA-B*07:02 = target: HLA-B*07:02
HLA-B*35:01 = target: HLA-B*35:01

Sequence | pIC50 (HLA-B*44:03) | pIC50 (HLA-B*35:01) | further results
GEIALGDAT | 4.81 |  | 
HADWNNQSI |  |  | pIC50 (HLA-B*53:01): 4.91
KAKSLTTEI |  |  | pIC50 (HLA-B*57:01): ≤ 4.15
KEVDGIIQE | 4.41 |  | 
LPPRPVVAE |  |  | pIC50 (HLA-B*07:02): ≤ 4.11
PFIIKLKDC |  | 4.93 | 
PLPPRPVVA | 4.25 |  | 
TPLPVSLTA |  | 6.68 | pIC50 (HLA-B*53:01): 4.93
VARLVKLQG |  |  | pIC50 (HLA-B*57:01): ≤ 4.15
VIGACTSPY |  | 4.20 | 
YALKSRIAL |  | 4.71 | 
YEVTPTRML | 4.72 |  | 
YSTGDLRAY |  | 4.50 | 
